# From patent US6617118B2, “Monoclonal antibody for analysis and clearance of polyethylene glycol and polyethylene glycol-modified molecules” (priority 1999, dated 2003)
# B1: βG-sPEG: β-glucuronidase modified with sPEG (conjugate, UniProt P05804 1-603, looked up)
# Beta-glucuronidase: MLRPVETPTREIKKLDGLWAFSLDRENCGIDQRWWESALQESRAIAVPGSFNDQFADADIRNYAGNVWYQREVFIPKGWAGQRIVLRFDAVTHYGKVWVNNQEVMEHQGGYTPFEADVTPYVIAGKSVRITVCVNNELNWQTIPPGMVITDENGKKKQSYFHDFFNYAGIHRSVMLYTTPNTWVDDITVVTHVAQDCNHASVDWQVVANGDVSVELRDADQQVVATGQGTSGTLQVVNPHLWQPGEGYLYELCVTAKSQTECDIYPLRVGIRSVAVKGEQFLINHKPFYFTGFGRHEDADLRGKGFDNVLMVHDHALMDWIGANSYRTSHYPYAEEMLDWADEHGIVVIDETAAVGFNLSLGIGFEAGNKPKELYSEEAVNGETQQAHLQAIKELIARDKNHPSVVMWSIANEPDTRPQGAREYFAPLAEATRKLDPTRPITCVNVMFCDAHTDTISDLFDVLCLNRYYGWYVQSGDLETAEKVLEKELLAWQEKLHQPIIITEYGVDTLAGLHSMYTDMWSEEYQCAWLDMYHRVFDRVSAVVGEQVWNFADFATSQGILRVGGNKKGIFTRDRKPKSAAFLLQKRWTGMNFGEKPQQGGKQ
# modifications: sPEG modified
# B2: βG-pPEG: β-glucuronidase modified with pPEG (conjugate, UniProt P05804 1-603, looked up)
# Beta-glucuronidase: B1 Beta-glucuronidase
# modifications: pPEG modified
# B3: Eschericia coli β-glucuronidase (protein, UniProt P05804 1-603, looked up)
# Beta-glucuronidase: B1 Beta-glucuronidase
# notes: recombinant Eschericia coli-derived β-glucuronidase
# Tests used:
# [1] = βG enzymatic activity of PEG-modified βG and conjugates; type: biochemical; settings: purified by gel filtration, 9.2 sPEG groups/βG subunit
# [2] = 150 μg i.v., after a period of rapid clearance
# Method: Pharmacokinetics of βG-pPEG: Male BALB/c mice were i.v injected with 150 μg βG-pPEG. Serum was isolated from blood samples that were periodically removed from the tail vein of the mice. The concentration of βG-pPEG in serially-diluted serum samples was assayed in triplicate by the AGP3 ELISA. The concentration of βG-pPEG was determined by comparison to a standard curve generated with known concentrations of βG-pPEG.
# A sandwich ELISA was developed in which AGP3 was employed for the capture step and AGP3-biotin used for detection. […] Binding of βG-pPEG to the immobilized AGP3 was detected by sequential addition of AGP3-biotin and streptavidin-HRP. Results represent mean values of triplicate determinations. Bars indicate the standard error of the mean. […] The effect of serum on the ELISA was examined by adding 10% mouse serum to samples before assay. […] The AGP3 ELISA was employed to measure the pharmacokinetics of βG-pPEG in mice. In FIG. 7, a BALB/c mouse was i.v. injected with 150 μg βG-pPEG. Blood samples were periodically removed from the tail vein and assayed for βG-pPEG concentration by ELISA.
# immobilized AGP3 = assay: AGP3 sandwich ELISA (AGP3 capture, AGP3-biotin detection); type: binding; settings: unmodified protein in PBS
# Method: AGP3 ELISA: Maxisorp™ 96-well microplates (Nunc™, Roskilde, Denmark) were coated with 50 μL/well of AGP3 (200 μg/ml in PBS) for 3 h at 37° C. Plates were blocked with 2% skim milk in PBS overnight and washed twice with PBS/T (0.05% Tween-20 in PBS) before serial dilutions of βG or βG-pPEG (50 μL in dilution buffer) were added to wells for 1.5 h at room temperature. Plates were washed 6 times with PBS/T and 50 μL/well AGP3-biotin (20 μg/ml in dilution buffer) was added for 1.5 h at room temperature. Plates were again washed with PBS/T and 50 μL/well streptavidin-HRP (1:1000) was added for 1 h at room temperature. Plates were washed before 100 μL/well ABTS substrate was added for 30 min at room temperature. Absorbance (405 nm) of wells was measured in a microtiter plate reader. The effect of serum on the AGP3 ELISA was examined by performing the assay in the presence of 10% serum isolated from healthy BALB/c mice.
# A sandwich ELISA was developed in which AGP3 was employed for the capture step and AGP3-biotin used for detection. In FIG. 6, serial dilutions of βG-pPEG in PBS (◯) or 10% mouse serum (□) as well as βG in PBS (Δ) were incubated in a microtiter plate coated with AGP3. Binding of βG-pPEG to the immobilized AGP3 was detected by sequential addition of AGP3-biotin and streptavidin-HRP. Results represent mean values of triplicate determinations. […]
# [3] = pH values less than 5.0 or greater than 9.0; 4 h at 37° C., assay at pH 7.0
# Method: To test the pH stability of βG, enzyme in βG buffer was adjusted to pH values ranging from 3-11 for 4 h at 37° C. before neutralization to pH 7.0 and assay of enzymatic activity.
molecule,measurement,setting,value
B1,original enzymatic activity possessed,[1],69%
B2,first-order half-life of elimination from the circulation,[2],19.2 h
B3,signal in AGP3 sandwich ELISA,immobilized AGP3,lack of signal
same,pH stability of enzymatic activity,[3],irreversibly deactivated
